This note sets out measurements from the supplement of paper PMC11780869.

This data set deals with Bacillus subtilis. As to the kind of experiment: cleaved RNA product abundance (RNA/gDNA barcode ratio) relative to median wild-type variant (ratio to wild type); higher = more accumulation of the downstream cleavage product. The following applies: cleavage site: cggR-gapA (positions -7 to +36 mutated). The method, then: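 MPRA in B. subtilis. Mutagenized RNase Y cleavage-site regions (9% mutation rate) were inserted into a barcoded reporter mRNA (truncated aprE or tetM). Cells were grown in LB at 37°C to OD600 0.3. The cleaved RNA isoform was gel-purified and its barcodes counted; the RNA:gDNA barcode ratio was normalised to the median wild-type variant, and the median over barcodes is reported per variant. The printed sequence is the variable window only; the reporter flanks are not printed.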

[1] abbreviates: experiment (reporter, strain, medium): exp 4a: truncated aprE reporter, strain BJT201 with 2% xylose (RNase J1 expressed).
Where [2] appears, read: experiment (reporter, strain, medium): exp 2b: truncated aprE reporter, strain BJT200.

Consider “ACAGACGAAGGAGCCGCAAAGAAGTAATTCAGGGATGAATAATCCCTCAATATAAATATCTCTCACTTATTTAAA”, for which the “cleaved RNA product abundance” value under setting [1] turned out to be 0.325. Still for that read-out and setting: with “ACAGACGAAGGAGCCGCAAAGAAGTACTTAAGGGATGAATAATCCCTCAATATAAATATCTCTCACTTATTTAAA” the figure was 0.243.

In the case of “ACAGACGAAGGAGCCGCAAAGAAGTATTTAAGGGATGAATAATCCCTCAATATAAATATCTCTCACTTATTTAAA”, the “cleaved RNA product abundance” value came to 0.275 under setting [2] and 0.288 under setting [1].

As for “ACAGACGAAGGAGCCGCAAAGAAGTCAATAAGGGATGAATAATCCCTCAATATAAATATCTCTCACTTATTTAAA”, under setting [1], the “cleaved RNA product abundance” value was 0.284. Still for that read-out and setting: with “ACAGACGAAGGAGCCGCAAAGAAGTCATAAAGGGATGAATAATCCCTCAATATAAATATCTCTCACTTATTTAAA” the figure was 0.198; with “ACAGACGAAGGAGCCGCAAAGAAGTCATGAAGGGATGAATAATCCCTCAATATAAATATCTCTCACTTATTTAAA”, 0.325; with “ACAGACGAAGGAGCCGCAAAGAAGTCATTAAAGGATGAATAATCCCTCAATATAAATATCTCTCACTTATTTAAA”, 0.158. The same measure, in the same setting: with “ACAGACGAAGGAGCCGCAAAGAAGTCATTAACGGATGAATAATCCCTCAATATAAATATCTCTCACTTATTTAAA” the figure was 0.128. Consider “ACAGACGAAGGAGCCGCAAAGAAGTCATTAAGAGATGAATAATCCCTCAATATAAATATCTCTCACTTATTTAAA”, for which the “cleaved RNA product abundance” value turned out to be 0.108 under setting [2] and 0.137 under setting [1]. For the sequence “ACAGACGAAGGAGCCGCAAAGAAGTCATTAAGCGATGAATAATCCCTCAATATAAATATCTCTCACTTATTTAAA”, the “cleaved RNA product abundance” value under setting [1] is 0.0665. In the case of “ACAGACGAAGGAGCCGCAAAGAAGTCATTAAGGAATGAATAATCCCTCAATATAAATATCTCTCACTTATTTAAA”, the “cleaved RNA product abundance” value is, setting by setting: under setting [2], 0.0849; under setting [1], 0.139. Turning to “ACAGACGAAGGAGCCGCAAAGAAGTCATTAAGGCATGAATAATCCCTCAATATAAATATCTCTCACTTATTTAAA”, the “cleaved RNA product abundance” value under setting [1] amounted to 0.102. Same read-out and setting: with “ACAGACGAAGGAGCCGCAAAGAAGTCATTAAGGGACGAATAATCCCTCAATATAAATATCTCTCACTTATTTAAA” the figure was 0.154.

For the sequence “ACAGACGAAGGAGCCGCAAAGAAGTCATTAAGGGATAAATAATCCCTCAATATAAATATCTCTCACTTATTTAAA”, the “cleaved RNA product abundance” value worked out at 0.195 under setting [2] and 0.308 under setting [1]. In the same order, the values of “ACAGACGAAGGAGCCGCAAAGAAGTCATTAAGGGATGAAAAATCCCTCAATATAAATATCTCTCACTTATTTAAA” are 0.173 and 0.2.

As to “ACAGACGAAGGAGCCGCAAAGAAGTCATTAAGGGATGAATAAACCCTCAATATAAATATCTCTCACTTATTTAAA”, the “cleaved RNA product abundance” value under setting [1] was determined as 0.176. With “ACAGACGAAGGAGCCGCAAAGAAGTCATTAAGGGATGAATAATCCCACAATATAAATATCTCTCACTTATTTAAA”, the “cleaved RNA product abundance” value came to 0.142 under setting [2] and 0.2 under setting [1]. For “ACAGACGAAGGAGCCGCAAAGAAGTCATTAAGGGATGAATAATCCCCCAATATAAATATCTCTCACTTATTTAAA”, the “cleaved RNA product abundance” value under setting [1] was found to be 0.113. Turning to “ACAGACGAAGGAGCCGCAAAGAAGTCATTAAGGGATGAATAATCCCTCAAAATAAATATCTCTCACTTATTTAAA”, the “cleaved RNA product abundance” value under setting [1] was 0.203. For the sequence “ACAGACGAAGGAGCCGCAAAGAAGTCATTAAGGGATGAATAATCCCTCAATATAAACATCTCTCACTTATTTAAA”, the “cleaved RNA product abundance” value under setting [1] is 0.333.

In the case of “ACAGACGAAGGAGCCGCAAAGAAGTCATTAAGGGATGAATAATCCCTCAATATAAATAACTCTCACTTATTTAAA”, under setting [1], the “cleaved RNA product abundance” value was 0.249.

With “ACAGACGAAGGAGCCGCAAAGAAGTCATTAAGGGATGAATAATCCCTCAATATAAATATCTCTCACTTATTTAAA”, the “cleaved RNA product abundance” value runs as follows: under setting [2], 0.186; under setting [1], 0.255; (experiment (reporter, strain, medium): exp 6: tetM reporter, strain 168) 0.244. With “ACAGACGAAGGAGCCGCAAAGAAGTCATTAAGGGATGAATAATCCCTGAATATAAATATCTCTCACTTATTTAAA”, the “cleaved RNA product abundance” value under setting [1] is 0.136. As to “ACAGACGAAGGAGCCGCAAAGAAGTCATTAAGGGATGAATAATCCGTCAATATAAATATCTCTCACTTATTTAAA”, the “cleaved RNA product abundance” value under setting [2] came out at 0.124 and the “cleaved RNA product abundance” value under setting [1] amounted to 0.173. On to “ACAGACGAAGGAGCCGCAAAGAAGTCATTAAGGGATGAATAATCCTTCAATATAAATATCTCTCACTTATTTAAA”, for which the “cleaved RNA product abundance” value under setting [1] came out at 0.189. Regarding “ACAGACGAAGGAGCCGCAAAGAAGTCATTAAGGGATGAATAATCGCTCAATATAAATATCTCTCACTTATTTAAA”, the “cleaved RNA product abundance” value under setting [1] was 0.107. Consider “ACAGACGAAGGAGCCGCAAAGAAGTCATTAAGGGATGAATAATGCCTCAATATAAATATCTCTCACTTATTTAAA”, for which the “cleaved RNA product abundance” value under setting [1] stood at 0.13.

As to “ACAGACGAAGGAGCCGCAAAGAAGTCATTAAGGGATGATTAATCCCTCAATATAAATATCTCTCACTTATTTAAA”, under setting [1], the “cleaved RNA product abundance” value was determined as 0.217. With “ACAGACGAAGGAGCCGCAAAGAAGTCATTAAGGGATGTATAATCCCTCAATATAAATATCTCTCACTTATTTAAA”, the “cleaved RNA product abundance” value under setting [2] was found to be 0.16. With “ACAGACGAAGGAGCCGCAAAGAAGTCATTAAGGGATTAATAATCCCTCAATATAAATATCTCTCACTTATTTAAA”, under setting [1], the “cleaved RNA product abundance” value is 0.236. With “ACAGACGAAGGAGCCGCAAAGAAGTCATTAAGGTATGAATAATCCCTCAATATAAATATCTCTCACTTATTTAAA”, the “cleaved RNA product abundance” value under setting [2] came out at 0.0941. Regarding “ACAGACGAAGGAGCCGCAAAGAAGTCATTAAGTGATGAATAATCCCTCAATATAAATATCTCTCACTTATTTAAA”, the “cleaved RNA product abundance” value under setting [1] worked out at 0.0976. With “ACAGACGAAGGAGCCGCAAAGAAGTCATTAATGGATGAATAATCCCTCAATATAAATATCTCTCACTTATTTAAA”, the “cleaved RNA product abundance” value reads like this: under setting [2], 0.0927; under setting [1], 0.171.

With “ACAGACGAAGGAGCCGCAAAGAAGTCTTTAAGGGATGAATAATCCCTCAATATAAATATCTCTCACTTATTTAAA”, under setting [1], the “cleaved RNA product abundance” value is 0.181. Still for that read-out and setting: under “ACAGACGAAGGAGCCGCAAAGAAGTGAATAAGGGATGAATAATCCCTCAATATAAATATCTCTCACTTATTTAAA” stands 0.296. On the same count and under the same terms, with “ACAGACGAAGGAGCCGCAAAGAAGTGACTAAGGGATGAATAATCCCTCAATATAAATATCTCTCACTTATTTAAA” the figure was 0.344; with “ACAGACGAAGGAGCCGCAAAGAAGTGATAAAGGGATGAATAATCCCTCAATATAAATATCTCTCACTTATTTAAA”, 0.223.

As for “ACAGACGAAGGAGCCGCAAAGAAGTGATGAAGGGATGAATAATCCCTCAATATAAATATCTCTCACTTATTTAAA”, the “cleaved RNA product abundance” value under setting [2] came out at 0.446.

Take “ACAGACGAAGGAGCCGCAAAGAAGTGATTAAAGGATGAATAATCCCTCAATATAAATATCTCTCACTTATTTAAA”: the “cleaved RNA product abundance” value under setting [1] is 0.19. Regarding “ACAGACGAAGGAGCCGCAAAGAAGTGATTAACGGATGAATAATCCCTCAATATAAATATCTCTCACTTATTTAAA”, the “cleaved RNA product abundance” value is 0.129 under setting [2] and 0.0991 under setting [1]. Regarding “ACAGACGAAGGAGCCGCAAAGAAGTGATTAAGAGATGAATAATCCCTCAATATAAATATCTCTCACTTATTTAAA”, the “cleaved RNA product abundance” value was determined as 0.0989 under setting [2] and 0.133 under setting [1]. In the case of “ACAGACGAAGGAGCCGCAAAGAAGTGATTAAGCGATGAATAATCCCTCAATATAAATATCTCTCACTTATTTAAA”, the “cleaved RNA product abundance” value is, setting by setting: under setting [2], 0.115; under setting [1], 0.131.
